Measurements as given in patent US20140271661A1 (Bayer, published 2014).
Residue numbers refer to the chain shown, from its start.

B1: TPP2009 hIgG1 (antibody, V domains shown)
VH: EVQLLESGGGLVQPGGSLRLSCAASGFTFSAYRMGWVRQAPGKGLEWVSRIYSSGGRTRYADSVKGRFTISRDNSKNTLYLQMNSLRAEDTAVYYCAREKASDLSGSFSEALDYWGQGTLVTVSS
VL: AQSVLTQDPAVSVALGQTVRITCQGDSLRSYYASWYQQKPGQAPVLVIYGKNNRPSGIPDRFSGSSSGNTASLTITGAQAEDEADYYCNSRDSSGNHLVFGGGTKLTVLG
B2: TPP2803 IgG2, Germlined and converted to IgG2 (antibody, V domains shown)
VH: B1 VH with A31S, G35S
VL: SSELTQDPAVSVALGQTVRITCQGDSLRSYYASWYQQKPGQAPVLVIYGKNNRPSGIPDRFSGSSSGNTASLTITGAQAEDEADYYCNSRDSSGNHLVFGGGTKLTVLG
B3: TPP-2016 hIgG (antibody, V domains shown)
VH: B1 VH with A31K, G35D, Y52G, S53P, R57K, R59T, A101T, F108Y
VL: DIQMTQSPATLSVSPGERATLSCRASQNINRNLAWYQQKPGRAPRLLIHTASTRAPGVPVRITGSGSGTEFTLTISSLEPEDFAVYFCQQYASPPRTFGQGTKVEIKR
B4: TPP-2019 hIgG (antibody, V domains shown)
VH: EVQLLESGGGLVQPGGSLRLSCAASGFTFSRYAMYWVRQAPGKGLEWVSRISPSGGKTHYADSVKGRFTISRDNSKNTLYLQMNSLRAEDTAVYYCARLSQTGYYPHYHYYGMDVWGQGTTVTVSS
VL: DIQMTQSPATLSLSPGERATLSCRASQRVSSSYLTWYQQKPGQAPRLLIYGASSRATGIPDRFSGSGSGTDFTLTISRLEPEDFAVYYCQQYDSTPPLTFGGGTKVEIKR

Columns and labels:
[1] = target: T1, human antithrombin β complexed with heparin (human ATβH) (human, UniProt P01008 33-464, lacks glycosylation at Asn135 (β glyco-isoform); complexed with heparin); assay: cell-based or functional assay
[2] = target: cynomolgus antithrombin (ATβH species homolog, in Cyno plasma) (Cyno); assay: cell-based or functional assay
[3] = target: rabbit antithrombin β complexed with heparin (rATβH) (rabbit); assay: cell-based or functional assay
[4] = target: T1, human antithrombin β complexed with …; assay: panning and screening of human antibody libraries against human ATβ in complex with heparin

T1 sequence (P01008 33-464, one chain of several): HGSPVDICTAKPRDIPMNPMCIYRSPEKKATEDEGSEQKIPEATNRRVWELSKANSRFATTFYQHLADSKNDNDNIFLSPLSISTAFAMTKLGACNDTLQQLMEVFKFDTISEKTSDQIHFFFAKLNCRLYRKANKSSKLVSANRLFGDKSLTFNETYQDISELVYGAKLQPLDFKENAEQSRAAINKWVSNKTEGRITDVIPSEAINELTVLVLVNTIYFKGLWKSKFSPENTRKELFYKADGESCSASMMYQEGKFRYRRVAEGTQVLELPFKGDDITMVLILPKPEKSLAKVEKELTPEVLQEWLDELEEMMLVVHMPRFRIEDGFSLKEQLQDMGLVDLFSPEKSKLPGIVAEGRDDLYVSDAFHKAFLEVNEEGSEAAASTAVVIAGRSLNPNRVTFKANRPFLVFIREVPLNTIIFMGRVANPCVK

Row | Binder | EC50, FXa-Activated Clotting Assay, human HEM A plasma [1] | EC50, FXa-Activated Clotting Assay, human normal plasma [1] | binding result [4] | other results
1 | B1 | 4.7 nM | 10.5 nM | – | EC50, dPT (diluted prothrombin time), human HEM A plasma [1]: 9 nM; EC50, FXa-Activated Clotting Assay, cyno HEM A plasma [2]: 4.3 nM; EC50, FXa-Activated Clotting Assay, cyno normal plasma [2]: 21.5 nM; EC50, dPT (diluted prothrombin time), cyno HEM A plasma [2]: 13.9 nM; EC50, FXa-Activated Clotting Assay, rabbit HEM A plasma [3]: 10.5 nM; EC50, FXa-Activated Clotting Assay, rabbit normal plasma [3]: 25.7 nM
2 | B2 | 2.7 nM | 2.4 nM | – | –
3 | B3 | – | – | binds | –
4 | B4 | – | – | binds | –
